assay: soluble on expression in E. coli; label from the status in PepcDB or PDB records

Question: With “MGSDKIHHHHHHVKIILRKIRTLVTHPGFRANPIAVLGRCAALLGRVALGRPFVFSLTPAGERLRVDANLRYTTVTTFVMRDHLEPELHYLAHLLAPGDTFIDIGANVGVYSLRAATLVGAAGRVIAVEPGRDALTALRANLALNPGRTITVVAAALSDHIGTATLYHVGNGYDPQAFSLLSDETAKDAETVPLTTLDAVCADLAIDRLDCLKMDAEGVEPMVLAGGRATLERFHPAVILEMNTAILERRGSPTDQAWTFLAGLGYGFHRILGGRPVRLTAPPDDFCNVIATHPANEKIG” as the sequence, how does the “soluble on expression in E. coli” value read?
Answer: not soluble

Question: For “MLKVIDVDFVSDHTLELTFNDGYQGYADLSVYFKKAPFSEIKDFKRFSLTRDGSLNWDGNELTAATLRDITKGSQKSVELSFNVQEMEAVIKQASWESMMEGRPDILQAAIRSYVEQFGHGQVIAKAGIKSRTSAYRSLKPETTPNFGTLVQLGHAVIELAKDRTVANKEPRI”, which “soluble on expression in E. coli” value is on record?
Answer: not soluble

Question: With “MGSDKIHHHHHHMKEIDELTIKEYGVDSRILMERAGISVVLAMEEELGNLSDYRFLVLCGGGNNGGDGFVVARNLLGVVKDVLVVFLGKKKTPDCEYNYGLYKKFGGKVVEQFEPSILNEFDVVVDAIFGTGLRGEITGEYAEIINLVNKSGKVVVSVDVPSGIDSNTGKVLRTAVKADLTVTFGVPKIGHILFPGRDLTGKLKVANIGHPVHLINSINRYVITREMVRSLLPERPRDSHKGTYGKVLIIAGSRLYSGAPVLSGMGSLKVGTGLVKLAVPFPQNLIATSRFPELISVPIDTEKGFFSLQNLQECLELSKDVDVVAIGPGLGNNEHVREFVNEFLKTLEKPAVIDADAINVLDTSVLKERKSPAVLTPHPGEMARLVKKTVGDVKYNYELAEEFAKENDCVLVLKSATTIVTDGEKTLFNITGNTGLSKGGSGDVLTGMIAGFIAQGLSPLEASTVSVYLHGFAAELFEQDERGLTASELLRLIPEAIRRLKE” as the sequence, how does the “soluble on expression in E. coli” value read?
Answer: soluble

Question: Which “soluble on expression in E. coli” value does the source give for “MEAPEFKDFAKTMVDFIAEYLENIRERRVLPEVKPGYLKPLIPDAAPEKPEKWQDVMQDIERVIMPGVTHWHSPKFHAYFPTANSYPAIVADMLSGAIACIGFTWIASPACTELEVVMMDWLGKMLELPAEFLACSGGKGGGVIQGTASESTLVALLGAKAKKLKEVKELHPEWDEHTILGKLVGYCSDQAHSSVERAGLLGGVKLRSVQSENHRMRGAALEKAIEQDVAEGLIPFYAVVTLGTTNSCAFDYLDECGPVGNKHNLWIHVDAAYAGSAFICPEYRHLMKGIESADSFNFNPHKWMLVNFDCSAMWLKDPSWVVNAFNVDPLYLKHDMQGSAPDYRHWQIPLGRRFRALKLWFVLRLYGVENLQAHIRRHCNFAKQFGDLCVADSRFELAAEINMGLVCFRLKGSNERNEALLKRINGRGHIHLVPAKIKDVYFLRMAICSRFTQSEDMEYSWKEVSAAADEMEQEQ” here?
Answer: soluble

Question: For “MGSDKIHHHHHHENLYFQGMKTIVIEDKQRIESIILQADACFVGITDLEGNPYVVPMNFGYENDTLYLHSGPEGGKIEMLQRNNNVCITFSLGHKLVYQHKQVACSYSMRSESAMCRGKVEFIEDMEEKRHALDIIMRHYTKDQFSYSDPAVRNVKVWKVPVDQMTGKVFGLRADEKP”, which “soluble on expression in E. coli” value is on record?
Answer: soluble

Question: For “GMSRDRLYTWAGLWRSPSSSWEALRLEDDQAESQLRAPDERSGLPYQLDYRLRWDADWHLREAVFHVESETGVRKLHLLADGRGHWQDGDGEALPAFDGCLDIDIWPSPFTNTFPIRRLGLADGQRAEIRALYIEAPALEPRSMRQAYTRLDASHYLYENLEGSAFKAVLLVDEQGLVIDYPGLFQRL”, which “soluble on expression in E. coli” value is on record?
Answer: soluble

Question: For “SLTQSLLMYMDGPEVIGSSLGSPMEMEDALSMKGTAVVPFRATQEKNVIQIEGYMPLDCMFCSQTFTHSEDLNKHVLMQHRPTLCEPAVLRVEAEYLSPLDKSQVRTEPPKEKNCKENEFSCEVCGQTFRVAFDVEIHMRTHKDSFTYGCNMCGRRFKEPWFLKNHMRTHNGKSGARSKLQQGLESSPATINEVVQVHAAESISSPYKICMVCGFLFPNKESLIEHRKVHTKKTAFGTSSAQTDSPQGGMPSSREDFLQLFNLRPKSHPETGKKPVRCIPQLDPFTTFQAWQLATKGKVAICQEVKESGQEGSTDNDDSSSEKELGETNKGSCAGLSQEKEKCKHSHGEAPSVDADPKLPSSKEKPTHCSECGKAFRTYHQLVLHSRVHKKDRRAGAESPTMSVDGRQPGTCSPDLAAPLDENGAVDRGEGGSEDGSEDGLPEGIHLDKNDDGGKIKHLTSSRECSYCGKFFRSNYYLNIHLRTHTGEKPYKCEFCEYAAAQKTSLRYHLERHHKEKQTDVAAEVKNDGKNQDTEDALLTADSAQTKNLKRFFDGAKDVTGSPPAKQLKEMPSVFQNVLGSAVLSPAHKDTQDFHKNAADDSADKVNKNPTPAYLDLLKKRSAVETQANNLICRTKADVTPPPDGSTTHNLEVSPKEKQTETAADCRYRPSVDCHEKPLNLSVGALHNCPAISLSKSLIPSITCPFCTFKTFYPEVLMMHQRLEHKYNPDVHKNCRNKSLLRSRRTGCPPALLGKDVPPLSSFCKPKPKSAFPAQSKSLPSAKGKQSPPGPG”, which “soluble on expression in E. coli” value is on record?
Answer: not soluble

Question: Which “soluble on expression in E. coli” value does the source give for “EIQMTQTTSSLSASLGDRVTISCRASQDISNFLNWYQQKPDGTVKLLIYYTSTLHSGVPSRFSGSGSGTDYSLTISNLEQEDIATYFCQQGKTLPPTFGGGTKLEIKRADAAPTVSIFPPSSEQLTSGGASVVCFLNNFYPKEINVKWKIDGSERQNGVLDSWTEQDSKDSTYSMSSTLTLTKDEYERHNSYTCEATHKTSTSPIVKSFNRNEC” here?
Answer: soluble

Question: Which “soluble on expression in E. coli” value does the source give for “MGSDKIHHHHHHMPKIWTERIFDDPEIYVLRIDDDRIRYFEAVWEIPEGISYNAYLVKLNGANVLIDGWKGNYAKEFIDALSKIVDPKEITHIIVNHTEPDHSGSLPATLKTIGHDVEIIASNFGKRLLEGFYGIKDVTVVKDGEEREIGGKKFKFVMTPWLHWPDTMVTYLDGILFSCDVGGGYLLPEILDDSNESVVERYLPHVTKYIVTVIGHYKNYILEGAEKLSSLKIKALLPGHGLIWKKDPQRLLNHYVSVAKGDPKKGKVTVIYDSMYGFVENVMKKAIDSLKEKGFTPVVYKFSDEERPAISEILKDIPDSEALIFGVSTYEAEIHPLMRFTLLEIIDKANYEKPVLVFGVHGWAPSAERTAGELLKETKFRILSFTEIKGSNMDERKIEEAISLLKKELE” here?
Answer: soluble

Question: For “MGSDKIHHHHHHMIKYIALASVVLLVGCSSTAKKPIADDPFYAPVYPDTVPTQVAATGSIYLDSQASSLYSDIRAHRVGDIITVTLKESTQASKSANNEIKKGSDLSVEPVYAGGKNISISGVPIDLGYSDSMNTKRESDADQSNSLDGSISANIIQVLSNGNLVIRGEKWISINNGDEFIRVTGMIRSEDINPDNTIDSTRVANARIQYSGTGTFADSQKVGWLSSFFMSDWWPF”, which “soluble on expression in E. coli” value is on record?
Answer: not soluble

Question: Which “soluble on expression in E. coli” value does the source give for “MGVQTHVLELTSSVSAEKIFQGFVIDVDTVLPKAAPGAYKSVEIKGDGGPGTLKIITLPDGGPITTMTLRIDGVNKEALTFDYSVIDGDILLGFIESIENHVVLVPTADGGSICKTTAIFHTKGDAVVPEENIKYANEQNTALFKALEAYLIAN” here?
Answer: soluble

Question: For “MSLDHHLQGPVVAGMPNLHSHAFQRGMAGLSESRSGEKDSFWSWRKRMYHFLQVLSPEDVEAIASQLYLEMLKAGYTSVGEFHYLHHAVDGKHYANPAEMSERILAASETTGIGLTHLPVLYRFGGFGSREPSFQQGRFIHEPDEFVSLLEKLSPSFEKHPNRRLGMAPHSLRAVSPDLLSKVLPEFQRLCPGSPLHLHISEQTAEVEECLEWSGLRPVQWFFENLEPDSNWCLIHATHLDSQERRKLAESEVTVGLCPTTEANLGDGIFPMKEFMEEGGGFGIGSDSHVSISLCEELRWLEYQQRLLQRQRNCLREGHHHHHH”, which “soluble on expression in E. coli” value is on record?
Answer: soluble

Question: For “MGHHHHHHSHQETQLSSKVVQKLVLPFGRLNYLPLEQQFMPCLERILAREAGVAPLATVNILMSLCQLRCLPFRALHFVFSPGFINYISGTPHALIVRRYLSLLDTAVELELPGYRGPRLPRRQQVPIFPQPLITDRARCKYSHKDIVAEGLRQLLGEEKYRQDLTVPPGYCTDFLLCASSSGAVLPVRTQDPFLP”, which “soluble on expression in E. coli” value is on record?
Answer: not soluble

Question: Which “soluble on expression in E. coli” value does the source give for “MHRTARNFAEIKPNLLFRKAKMARKSAEKYVAKKIQVPELQGEALFGLHSVLEAIRSGKRDFHSVFLKKAVENRADSDARIKEILSRIDELGIQKTLLTDDQLDRLTEFQLHNGICMDASALQFSNFEPKTVSIFVDKVLDPGNLGAIGRSAWYFGADGLGLVKGRGPKSITPAMIKSSCGALEHLPVQQFLNFNEFRDKIKAAGGELVATCDPGAAEKAGISAKSLDQWTPEKPVGIVLGDEGVGISRGILNLCDTVISISPVRKDGSNVTSLNVSVVAGILLHHISLQNRTN” here?
Answer: not soluble

Reference: the DeepSol protein solubility set
